Drawing on patent US20210403913, this text covers Kd for six sequences.

Data set [1] addresses D-CXCL8 (mirror-image human CXCL8) (synthetic (human sequence)) (UniProt P10145). Description: competition. As to conditions: competition pull-down vs labelled 315-F8-001; 37 C.
Data set [2] concerns the target CXCL8 (IL-8) (Homo sapiens) (UniProt P10145). The data set can be described thus: SPR. As to conditions: L-RNA, CXCL8 immobilised.
Data set [3] deals with D-CXCL8 (mirror-image human CXCL8) (synthetic (human sequence)) (UniProt P10145). The data set can be described thus: pulldown. As to conditions: direct pull-down, 37 C.

For “CUGACGGAAGUACGUGGAAAGCCGAAAGUGUGUCCCGGUCAG [315-F8-002 (D)]”, the Kd in data set [1] was 1.1 nM. As to “CUGACGGAAGUACGUGGAAAGCCGAAAGUGUGUCCCGGUCAG [315-F8-002-PEG (AON-S08)]”, the Kd in data set [2] (5'-aminohexyl linker with 40 kDa Y-shape PEG, 25 C) worked out at 0.2 nM; in data set [2] (5'-aminohexyl linker with 40 kDa Y-shape PEG, 37 C), 0.8 nM. Consider “CUGACGGAAGUACGUGGAAAGCCGAAAGUGUGUCCCGGUCAG [315-F8-002 (L)]”, for which the Kd in data set [2] (25 C) was 0.22 nM; in data set [2] (37 C), 0.75 nM. “GCUGACGGAAGUACGUGGAAAGCCGAAAGUGUGUCCCGGUCAGC [315-F8-001 (D)]” returned a Kd in data set [3] (20 mM Tris pH 7.4, 150 mM NaCl, 5 mM KCl, 1 mM MgCl2, 1 mM CaCl2, yeast RNA) of 0.8 nM. Turning to “GCUGACGGAAGUACGUGGAAAGCCGAAAGUGUGUCCCGGUCAGC [315-F8-001 (L)]”, the Kd amounted to 0.22 nM in data set [2] (25 C, 20 mM Tris pH 7.4, 150 mM NaCl, 5 mM KCl, 1 mM MgCl2, 1 mM CaCl2) and 0.68 nM in data set [2] (37 C). In turn, “GCUGACGGAAGUACGUGGAAAGCCAAUGAGUGUGUCCCGGUCAGC [315-H9-001 (D)]” had a Kd in data set [3] of 1.7 nM.
